# According to patent US20240016892A1 (SHATTUCK LABS, published 2024):
# T1: recombinant human Nectin-4 (human, UniProt Q96NY8 32-349)
# T1 sequence (looked up): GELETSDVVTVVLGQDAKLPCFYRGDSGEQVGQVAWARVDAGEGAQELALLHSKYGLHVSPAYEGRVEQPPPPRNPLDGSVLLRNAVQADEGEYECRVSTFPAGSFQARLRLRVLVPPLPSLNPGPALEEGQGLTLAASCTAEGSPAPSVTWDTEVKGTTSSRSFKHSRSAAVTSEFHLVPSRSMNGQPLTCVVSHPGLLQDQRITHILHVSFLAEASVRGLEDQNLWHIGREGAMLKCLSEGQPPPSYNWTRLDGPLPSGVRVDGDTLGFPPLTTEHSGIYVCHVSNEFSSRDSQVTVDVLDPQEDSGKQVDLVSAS
# T2: recombinant human PVR (human, UniProt P15151 21-343)
# T2 construct: The tagged PVR of the BLI assay and the biotinylated PVR used as detector in MSD are treated as one molecule; also called rhPVR; CD155
# T2 sequence (looked up): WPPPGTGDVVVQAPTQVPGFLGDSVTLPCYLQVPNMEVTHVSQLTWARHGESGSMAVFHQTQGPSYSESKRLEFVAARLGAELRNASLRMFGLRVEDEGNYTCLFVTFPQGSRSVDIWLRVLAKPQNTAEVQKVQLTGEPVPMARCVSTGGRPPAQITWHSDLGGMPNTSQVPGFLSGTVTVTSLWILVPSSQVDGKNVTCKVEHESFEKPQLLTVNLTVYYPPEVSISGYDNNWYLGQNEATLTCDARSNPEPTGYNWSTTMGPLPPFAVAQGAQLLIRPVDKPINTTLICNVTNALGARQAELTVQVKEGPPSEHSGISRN
# T3: recombinant human CD112 (PVRL2) (human, UniProt Q92692 32-360)
# T3 construct: also called rhCD112 (PVRL2); Nectin-2
# T3 sequence (looked up): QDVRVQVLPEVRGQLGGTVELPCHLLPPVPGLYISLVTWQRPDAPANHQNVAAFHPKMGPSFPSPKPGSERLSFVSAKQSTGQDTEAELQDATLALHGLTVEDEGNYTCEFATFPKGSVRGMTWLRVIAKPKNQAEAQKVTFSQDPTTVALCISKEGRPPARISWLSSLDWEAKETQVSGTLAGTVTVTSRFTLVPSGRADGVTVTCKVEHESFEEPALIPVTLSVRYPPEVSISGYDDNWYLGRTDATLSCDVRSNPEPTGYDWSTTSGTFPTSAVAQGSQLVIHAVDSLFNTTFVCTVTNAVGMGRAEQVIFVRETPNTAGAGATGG
# How the values were obtained:
# [1] = molecular target: T1, recombinant human Nectin-4; assay: MSD: capture hNectin-4; detection anti-Fc-HRP
# [2] = molecular target: T2, recombinant human PVR; assay: BLI (Octet-Red96), tagged rhPVR immobilised on biosensor
# Experimental: (§1) Bio-Layer interferometry-based affinity testing was used to determine the on-rates (Ka), off-rates (Kd) and binding affinities (KD) of the TIGIT-Fc-LIGHT chimeric protein to intended binding targets, using histidine- or biotin-tagged versions of the human recombinant proteins (PVR, HVEM, LTβR, PVRL2, PVRL3, and Nectin-4; purchased from Acro Biosystems or Sino Biological). Commercially available or internally produced single-sided fusion protein controls (TIGIT-Fc and Fc-LIGHT) were also tested in parallel. Targets were immobilized at a concentration of 3 μg/mL in Kinetics buffer (PBS/0.1% Tween-20/1% BSA; pH7.0) to anti-pentaHis or streptavidin coated biosensors. Direct binding of fusion proteins to recombinant target proteins was performed on an Octet-Red96 BLI instrument, using association and dissociation times of 90 and 120 seconds, respectively.
# (§2) Protein-protein interactions (PPI) between the fusion proteins and their cognate binding partners were characterized using both recombinant protein and cell-based methods. First, bio-layer interferometry-based affinity testing was used to assess the kinetics of receptor/ligand binding.
# [3] = molecular target: T4, recombinant human LTβR (human, UniProt P36941 31-227, limits assumed); assay: BLI (Octet-Red96), tagged rhLTβR immobilised on biosensor
# T4 construct: Bought from Acro Biosystems or Sino Biological; construct limits and tag not specified; also called rhLTβR; TNFRSF3
# Experimental: as §1, §2
# [4] = molecular target: T3, recombinant human CD112 (PVRL2); assay: BLI (Octet-Red96), tagged rhCD112 (PVRL2) immobilised on biosensor
# Experimental: as §1
# [5] = molecular target: T5, recombinant human CD113 (PVRL3) (human, UniProt Q9NQS3 58-404); assay: BLI (Octet-Red96), tagged rhCD113 (PVRL3) immobilised on biosensor
# T5 construct: also called rhCD113 (PVRL3); Nectin-3
# Experimental: as §1
# [6] = molecular target: T6, anti-human TIGIT antibody (MSD capture); assay: MSD sandwich 'Dual - Antibody': capture anti-TIGIT, TIGIT-Fc-LIGHT titrated, detection anti-LIGHT
# T6 construct: also called anti-TIGIT antibody
# [7] = molecular target: T7, anti-human LIGHT-biotin antibody (MSD detection); assay: MSD sandwich 'Dual - Antibody': capture anti-TIGIT, TIGIT-Fc-LIGHT titrated, detection anti-LIGHT (same curve as the capture row)
# T7 construct: also called anti-LIGHT antibody
# T4 sequence (P36941 31-227 limits assumed): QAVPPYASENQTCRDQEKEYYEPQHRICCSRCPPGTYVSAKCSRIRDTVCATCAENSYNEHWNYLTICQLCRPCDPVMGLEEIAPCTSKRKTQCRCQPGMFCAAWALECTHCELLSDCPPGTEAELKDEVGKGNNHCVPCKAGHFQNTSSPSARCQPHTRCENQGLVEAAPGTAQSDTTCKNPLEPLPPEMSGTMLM
# T5 sequence (Q9NQS3 58-404 limits assumed): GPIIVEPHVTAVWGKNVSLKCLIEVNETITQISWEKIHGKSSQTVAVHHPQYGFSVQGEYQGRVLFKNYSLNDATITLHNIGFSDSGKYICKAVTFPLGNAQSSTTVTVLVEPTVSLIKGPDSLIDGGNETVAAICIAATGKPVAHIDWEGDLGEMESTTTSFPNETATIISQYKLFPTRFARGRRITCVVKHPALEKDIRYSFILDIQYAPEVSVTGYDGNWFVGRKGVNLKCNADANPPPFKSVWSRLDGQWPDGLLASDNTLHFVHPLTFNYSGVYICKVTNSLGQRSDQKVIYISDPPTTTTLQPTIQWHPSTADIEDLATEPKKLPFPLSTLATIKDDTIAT
binder,measurement,setting,value
"human TIGIT-Fc-LIGHT chimeric protein (Fc fusion, Said to exist as a hexamer (dimer of trimers); Glycosylated; also called hTIGIT-Fc-LIGHT; TIGIT-Fc(IgG4)-LIGHT) MMTGTIETTGNISAEKGGSIILQCHLSSTTAQVTQVNWEQQDQLLAICNADLGWHISPSFKDRVAPGPGLGLTLQSLTVNDTGEYFCIYHTYPDGTYTGRIFLEVLESSVAEHGARFQIPSKYGPPCPPCPAPEFLGGPSVFLFPPKPKDQLMISRTPEVTCVVVDVSQEDPEVQFNWYVDGVEVHNAKTKPREEQFNSTYRVVSVLTVLHQDWLSGKEYKCKVSSKGLPSSIEKTISNATGQPREPQVYTLPPSQEEMTKNQVSLTCLVKGFYPSDIAVEWESNGQPENNYKTTPPVLDSDGSFFLYSRLTVDKSRWQEGNVFSCSVLHEALHNHYTQKSLSLSLGKIEGRMDLQLHWRLGEMVTRLPDGPAGSWEQLIQERRSHEVNPAAHLTGANSSLTGSGGPLLWETQLGLAFLRGLSYHDGALVVTKAGYYYIYSKVQLGGVGCPLGLASTITHGLYKRTPRYPEELELLVSQQSPCGRATSSSRVWWDSSFLGGVVHLEAGEKVVVRVLDERLVRLRDGTRSYFGAFMV",binding result,[1],binds
same,Kd,[2],4.07 nM
same,koff,[2],0.000103 s⁻¹
same,kon,[2],25300 M⁻¹ s⁻¹
same,Kd,[3],3.52 nM
same,koff,[3],7.44e-05 s⁻¹
same,kon,[3],21200 M⁻¹ s⁻¹
same,Kd,[4],3 nM
same,koff,[4],0.000471 s⁻¹
same,kon,[4],172000 M⁻¹ s⁻¹
same,koff,[5],0.00126 s⁻¹
same,kon,[5],130000 M⁻¹ s⁻¹
same,EC50,[6],1.15 nM
same,EC50,[7],1.15 nM
